T1: VEGF (human, UniProt P15692)
T1 chain: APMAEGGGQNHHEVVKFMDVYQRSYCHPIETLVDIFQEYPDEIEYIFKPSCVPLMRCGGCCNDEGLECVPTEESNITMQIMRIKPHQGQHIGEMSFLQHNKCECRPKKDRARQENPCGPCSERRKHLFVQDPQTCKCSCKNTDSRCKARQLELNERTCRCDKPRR

B1: DVD497 VEGF arm (antibody, V domains shown)
VH: EVQLVESGGGLVQPGGSLRLSCAASGFTINASWIHWVRQAPGKGLEWVGAIYPYSGYTNYADSVKGRFTISADTSKNTAYLQMNSLRAEDTAVYYCARWGHSTSPWAMDYWGQGTLVTVSS
VL: DIQMTQSPSSLSASVGDRVTITCRASQVIRRSLAWYQQKPGKAPKLLIYAASNLASGVPSRFSGSGSGTDFTLTISSLQPEDFATYYCQQSNTSPLTFGQGTKVEIKR
B2: DVD492 VEGF arm (antibody, V domains shown)
VH: EVQLVESGGGLVQPGGSLRLSCAASGFTINASWIHWVRQAPGKGLEWVGAIYPYSGYTNYADSVKGRFTISADTSKNTAYLQMNSLRAEDTAVYYCARWGHSTSPWAMDYWGQGTLVTVSS
VL: DIQMTQSPSSLSASVGDRVTITCRASQVIRRSLAWYQQKPGKAPKLLIYAASNLASGVPSRFSGSGSGTDFTLTISSLQPEDFATYYCQQSNTSPLTFGQGTKVEIKR
B3: DVD522 VEGF arm (antibody, V domains shown)
VH: EVQLVESGGGLVQPGGSLRLSCAASGFTINASWIHWVRQAPGKGLEWVGAIYPYSGYTNYADSVKGRFTISADTSKNTAYLQMNSLRAEDTAVYYCARWGHSTSPWAMDYWGQGTLVTVSS
VL: DIQMTQSPSSLSASVGDRVTITCRASQVIRRSLAWYQQKPGKAPKLLIYAASNLASGVPSRFSGSGSGTDFTLTISSLQPEDFATYYCQQSNTSPLTFGQGTKVEIKR
B4: DVD473 VEGF arm (antibody, V domains shown)
VH: EVQLVESGGGLVQPGGSLRLSCAASGFTINASWIHWVRQAPGKGLEWVGAIYPYSGYTNYADSVKGRFTISADTSKNTAYLQMNSLRAEDTAVYYCARWGHSTSPWAMDYWGQGTLVTVSS
VL: DIQMTQSPSSLSASVGDRVTITCRASQVIRRSLAWYQQKPGKAPKLLIYAASNLASGVPSRFSGSGSGTDFTLTISSLQPEDFATYYCQQSNTSPLTFGQGTKVEIKR
B5: DVD468 VEGF arm (antibody, V domains shown)
VH: EVQLVESGGGLVQPGGSLRLSCAASGFTINASWIHWVRQAPGKGLEWVGAIYPYSGYTNYADSVKGRFTISADTSKNTAYLQMNSLRAEDTAVYYCARWGHSTSPWAMDYWGQGTLVTVSS
VL: DIQMTQSPSSLSASVGDRVTITCRASQVIRRSLAWYQQKPGKAPKLLIYAASNLASGVPSRFSGSGSGTDFTLTISSLQPEDFATYYCQQSNTSPLTFGQGTKVEIKR
B6: DVD486 VEGF arm (antibody, V domains shown)
VH: EVQLVESGGGLVQPGGSLRLSCAASGFTINASWIHWVRQAPGKGLEWVGAIYPYSGYTNYADSVKGRFTISADTSKNTAYLQMNSLRAEDTAVYYCARWGHSTSPWAMDYWGQGTLVTVSS
VL: DIQMTQSPSSLSASVGDRVTITCRASQVIRRSLAWYQQKPGKAPKLLIYAASNLASGVPSRFSGSGSGTDFTLTISSLQPEDFATYYCQQSNTSPLTFGQGTKVEIKR
B7: DVD467 VEGF arm (antibody, V domains shown)
VH: EVQLVESGGGLVQPGGSLRLSCAASGFTINASWIHWVRQAPGKGLEWVGAIYPYSGYTNYADSVKGRFTISADTSKNTAYLQMNSLRAEDTAVYYCARWGHSTSPWAMDYWGQGTLVTVSS
VL: DIQMTQSPSSLSASVGDRVTITCRASQVIRRSLAWYQQKPGKAPKLLIYAASNLASGVPSRFSGSGSGTDFTLTISSLQPEDFATYYCQQSNTSPLTFGQGTKVEIKR
B8: DVD510 VEGF arm (antibody, V domains shown)
VH: EVQLVESGGGLVQPGGSLRLSCAASGFTINASWIHWVRQAPGKGLEWVGAIYPYSGYTNYADSVKGRFTISADTSKNTAYLQMNSLRAEDTAVYYCARWGHSTSPWAMDYWGQGTLVTVSS
VL: DIQMTQSPSSLSASVGDRVTITCRASQVIRRSLAWYQQKPGKAPKLLIYAASNLASGVPSRFSGSGSGTDFTLTISSLQPEDFATYYCQQSNTSPLTFGQGTKVEIKR
B9: DVD509 VEGF arm (antibody, V domains shown)
VH: EVQLVESGGGLVQPGGSLRLSCAASGFTINASWIHWVRQAPGKGLEWVGAIYPYSGYTNYADSVKGRFTISADTSKNTAYLQMNSLRAEDTAVYYCARWGHSTSPWAMDYWGQGTLVTVSS
VL: DIQMTQSPSSLSASVGDRVTITCRASQVIRRSLAWYQQKPGKAPKLLIYAASNLASGVPSRFSGSGSGTDFTLTISSLQPEDFATYYCQQSNTSPLTFGQGTKVEIKR
B10: DVD503 VEGF arm (antibody, V domains shown)
VH: EVQLVESGGGLVQPGGSLRLSCAASGFTINASWIHWVRQAPGKGLEWVGAIYPYSGYTNYADSVKGRFTISADTSKNTAYLQMNSLRAEDTAVYYCARWGHSTSPWAMDYWGQGTLVTVSS
VL: DIQMTQSPSSLSASVGDRVTITCRASQVIRRSLAWYQQKPGKAPKLLIYAASNLASGVPSRFSGSGSGTDFTLTISSLQPEDFATYYCQQSNTSPLTFGQGTKVEIKR
B11: DVD452 VEGF arm (antibody, V domains shown)
VH: EVQLVESGGGLVQPGGSLRLSCAASGFTINASWIHWVRQAPGKGLEWVGAIYPYSGYTNYADSVKGRFTISADTSKNTAYLQMNSLRAEDTAVYYCARWGHSTSPWAMDYWGQGTLVTVSS
VL: DIQMTQSPSSLSASVGDRVTITCRASQVIRRSLAWYQQKPGKAPKLLIYAASNLASGVPSRFSGSGSGTDFTLTISSLQPEDFATYYCQQSNTSPLTFGQGTKVEIKR
B12: DVD504 VEGF arm (antibody, V domains shown)
VH: EVQLVESGGGLVQPGGSLRLSCAASGFTINASWIHWVRQAPGKGLEWVGAIYPYSGYTNYADSVKGRFTISADTSKNTAYLQMNSLRAEDTAVYYCARWGHSTSPWAMDYWGQGTLVTVSS
VL: DIQMTQSPSSLSASVGDRVTITCRASQVIRRSLAWYQQKPGKAPKLLIYAASNLASGVPSRFSGSGSGTDFTLTISSLQPEDFATYYCQQSNTSPLTFGQGTKVEIKR
B13: DVD533 VEGF arm (antibody, V domains shown)
VH: EVQLVESGGGLVQPGGSLRLSCAASGFTINASWIHWVRQAPGKGLEWVGAIYPYSGYTNYADSVKGRFTISADTSKNTAYLQMNSLRAEDTAVYYCARWGHSTSPWAMDYWGQGTLVTVSS
VL: DIQMTQSPSSLSASVGDRVTITCRASQVIRRSLAWYQQKPGKAPKLLIYAASNLASGVPSRFSGSGSGTDFTLTISSLQPEDFATYYCQQSNTSPLTFGQGTKVEIKR
B14: DVD474 VEGF arm (antibody, V domains shown)
VH: EVQLVESGGGLVQPGGSLRLSCAASGFTINASWIHWVRQAPGKGLEWVGAIYPYSGYTNYADSVKGRFTISADTSKNTAYLQMNSLRAEDTAVYYCARWGHSTSPWAMDYWGQGTLVTVSS
VL: DIQMTQSPSSLSASVGDRVTITCRASQVIRRSLAWYQQKPGKAPKLLIYAASNLASGVPSRFSGSGSGTDFTLTISSLQPEDFATYYCQQSNTSPLTFGQGTKVEIKR
B15: DVD458 VEGF arm (antibody, V domains shown)
VH: EVQLVESGGGLVQPGGSLRLSCAASGFTINASWIHWVRQAPGKGLEWVGAIYPYSGYTNYADSVKGRFTISADTSKNTAYLQMNSLRAEDTAVYYCARWGHSTSPWAMDYWGQGTLVTVSS
VL: DIQMTQSPSSLSASVGDRVTITCRASQVIRRSLAWYQQKPGKAPKLLIYAASNLASGVPSRFSGSGSGTDFTLTISSLQPEDFATYYCQQSNTSPLTFGQGTKVEIKR
B16: DVD534 VEGF arm (antibody, V domains shown)
VH: EVQLVESGGGLVQPGGSLRLSCAASGFTINASWIHWVRQAPGKGLEWVGAIYPYSGYTNYADSVKGRFTISADTSKNTAYLQMNSLRAEDTAVYYCARWGHSTSPWAMDYWGQGTLVTVSS
VL: DIQMTQSPSSLSASVGDRVTITCRASQVIRRSLAWYQQKPGKAPKLLIYAASNLASGVPSRFSGSGSGTDFTLTISSLQPEDFATYYCQQSNTSPLTFGQGTKVEIKR
B17: DVD516 VEGF arm (antibody, V domains shown)
VH: EVQLVESGGGLVQPGGSLRLSCAASGFTINASWIHWVRQAPGKGLEWVGAIYPYSGYTNYADSVKGRFTISADTSKNTAYLQMNSLRAEDTAVYYCARWGHSTSPWAMDYWGQGTLVTVSS
VL: DIQMTQSPSSLSASVGDRVTITCRASQVIRRSLAWYQQKPGKAPKLLIYAASNLASGVPSRFSGSGSGTDFTLTISSLQPEDFATYYCQQSNTSPLTFGQGTKVEIKR
B18: DVD445 VEGF arm (antibody, V domains shown)
VH: EVQLVESGGGLVQPGGSLRLSCAASGFTINASWIHWVRQAPGKGLEWVGAIYPYSGYTNYADSVKGRFTISADTSKNTAYLQMNSLRAEDTAVYYCARWGHSTSPWAMDYWGQGTLVTVSS
VL: DIQMTQSPSSLSASVGDRVTITCRASQVIRRSLAWYQQKPGKAPKLLIYAASNLASGVPSRFSGSGSGTDFTLTISSLQPEDFATYYCQQSNTSPLTFGQGTKVEIKR
B19: DVD527 VEGF arm (antibody, V domains shown)
VH: EVQLVESGGGLVQPGGSLRLSCAASGFTINASWIHWVRQAPGKGLEWVGAIYPYSGYTNYADSVKGRFTISADTSKNTAYLQMNSLRAEDTAVYYCARWGHSTSPWAMDYWGQGTLVTVSS
VL: DIQMTQSPSSLSASVGDRVTITCRASQVIRRSLAWYQQKPGKAPKLLIYAASNLASGVPSRFSGSGSGTDFTLTISSLQPEDFATYYCQQSNTSPLTFGQGTKVEIKR
B20: DVD464 VEGF arm (antibody, V domains shown)
VH: EVQLVESGGGLVQPGGSLRLSCAASGFTINASWIHWVRQAPGKGLEWVGAIYPYSGYTNYADSVKGRFTISADTSKNTAYLQMNSLRAEDTAVYYCARWGHSTSPWAMDYWGQGTLVTVSS
VL: DIQMTQSPSSLSASVGDRVTITCRASQVIRRSLAWYQQKPGKAPKLLIYAASNLASGVPSRFSGSGSGTDFTLTISSLQPEDFATYYCQQSNTSPLTFGQGTKVEIKR
B21: DVD480 VEGF arm (antibody, V domains shown)
VH: EVQLVESGGGLVQPGGSLRLSCAASGFTINASWIHWVRQAPGKGLEWVGAIYPYSGYTNYADSVKGRFTISADTSKNTAYLQMNSLRAEDTAVYYCARWGHSTSPWAMDYWGQGTLVTVSS
VL: DIQMTQSPSSLSASVGDRVTITCRASQVIRRSLAWYQQKPGKAPKLLIYAASNLASGVPSRFSGSGSGTDFTLTISSLQPEDFATYYCQQSNTSPLTFGQGTKVEIKR

One may read the EC50 as the concentration giving half of the maximal effect. Low readings indicate an effect from little substance, high ones a need for much substance.

For this test, the target named is T1, VEGF. Briefly: ELISA.
Consider B1, for which the EC50 is 858 nM. The result for B2 reads 8.42 nM. Next, B3: 23.5 nM. Take B4: the EC50 was determined as 388 nM. The result for B5 reads 25.6 nM; that for B6, 28 nM; that for B7, 1810 nM. Next, B8: 23.9 nM.

B9: the response was half-maximal at 121 nM (EC50). In turn, B10 returned an EC50 of 430 nM. The result for B11 reads 17.8 nM.

In turn, B12 yielded a concentration for a half-maximal effect (EC50) of 16.7 nM. The EC50 values of the last two molecules are within 1.5-fold of each other. Turning to B13, the EC50 was 1260 nM. In turn, B14 showed an EC50 of 17.9 nM. The result for B15 reads 21.5 nM; that for B16, 23.6 nM.

For the molecule B17, the EC50 turned out to be 24.6 nM. The EC50 values of the last two molecules are within 1.5-fold of each other. In turn, B18 displayed an EC50 of 14500 nM. Molecule B19 gave an EC50 of 2380 nM. The result for B20 reads 19.3 nM. The result for B21 reads 23 nM.

Source of the values: patent publication US9029508 (dated 2015).
